Molecular target: adt2_human SLC25A5 (UniProt P05141)
Sequence (P05141 whole entry): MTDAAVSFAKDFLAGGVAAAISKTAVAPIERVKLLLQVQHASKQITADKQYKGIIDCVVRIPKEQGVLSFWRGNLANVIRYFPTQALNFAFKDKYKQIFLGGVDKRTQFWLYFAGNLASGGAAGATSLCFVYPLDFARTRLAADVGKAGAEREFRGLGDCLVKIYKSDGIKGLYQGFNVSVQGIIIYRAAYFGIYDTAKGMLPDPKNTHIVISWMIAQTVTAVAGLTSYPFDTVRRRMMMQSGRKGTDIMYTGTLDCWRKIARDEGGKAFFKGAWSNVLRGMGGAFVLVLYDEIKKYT

Chain of Cytoplasmic protein NCK2 (Homo sapiens), O43639 R311K (O43639 whole entry R311K): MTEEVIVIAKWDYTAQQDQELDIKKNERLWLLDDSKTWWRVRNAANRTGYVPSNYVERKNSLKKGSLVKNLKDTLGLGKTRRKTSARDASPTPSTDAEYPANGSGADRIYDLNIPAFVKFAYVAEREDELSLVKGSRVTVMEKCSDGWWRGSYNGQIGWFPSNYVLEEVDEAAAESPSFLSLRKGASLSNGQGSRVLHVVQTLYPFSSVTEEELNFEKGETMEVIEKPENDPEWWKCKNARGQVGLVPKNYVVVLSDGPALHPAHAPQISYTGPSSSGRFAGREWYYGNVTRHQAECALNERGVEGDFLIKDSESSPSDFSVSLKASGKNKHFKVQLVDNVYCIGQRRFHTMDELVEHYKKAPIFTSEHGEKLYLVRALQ

- effect of a mutation on the interaction: disrupting interaction
Substance: Cytoplasmic protein NCK2 (Homo sapiens), O43639 R311K
